The values that follow come from article PMC6058786 (Haematologica, 2018).

Assay [1] deals with T1, purified Pin1 WW-domain (UniProt Q13526 5-39). Description: ITC.
Assay [2] deals with T1, purified Pin1 WW-domain. The assay is described as follows: NMR titration.
Assay [3] deals with T1, purified Pin1 WW-domain. The assay is described as follows: ITC. This is another data set of the same source. On the technique in general: Isothermal titration calorimetry measures the heat released or taken up as one component is titrated into another.

T1 sequence (Q13526 5-39): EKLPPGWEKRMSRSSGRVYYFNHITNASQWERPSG

B1: unphosphorylated TFCD (ITC) (peptide)
peptide: HKCRKAGVGQSWKENSPLNVS
With B1, the Kd (commonly the equilibrium constant for the complex coming apart) with purified Pin1 WW-domain [1] stood at 1530 µM.

B2: double phosphorylated pSer253/pSer258 TFCD peptide (peptide)
peptide: HKCRKAGVGQSWKENSPLNVS
modifications: not fully specified; phosphoserine at 253; phosphoserine at 258
In the assay with purified Pin1 WW-domain [2], B2 displayed a Kd of 133 ± 13 µM.

B3: Ser258-phosphorylated TFCD-encoding peptide (ITC) (peptide)
peptide: HKCRKAGVGQSWKENSPLNVS
modifications: not fully specified; phosphoserine at 258
On to B3, for which the dissociation constant (Kd) with purified Pin1 WW-domain [3] is about 137 µM.
